In general, kon refers to the second-order rate constant of association. For orientation: koff means a measure of how fast the partners let go of each other.

We go through 17 molecules from patent US20180037632A1 (BIONTECH, published 2018).

The labels stand for the following.
T1: recombinant soluble human Seprase (rhuSeprase) (human, UniProt Q12884 29-760)
T1 construct: range 29-760; Secreted from CHO-S cells with a mouse Ig kappa secretion signal (not part of the protein in the assay); also called recombinant human Seprase; soluble fraction of human Seprase
T1 sequence: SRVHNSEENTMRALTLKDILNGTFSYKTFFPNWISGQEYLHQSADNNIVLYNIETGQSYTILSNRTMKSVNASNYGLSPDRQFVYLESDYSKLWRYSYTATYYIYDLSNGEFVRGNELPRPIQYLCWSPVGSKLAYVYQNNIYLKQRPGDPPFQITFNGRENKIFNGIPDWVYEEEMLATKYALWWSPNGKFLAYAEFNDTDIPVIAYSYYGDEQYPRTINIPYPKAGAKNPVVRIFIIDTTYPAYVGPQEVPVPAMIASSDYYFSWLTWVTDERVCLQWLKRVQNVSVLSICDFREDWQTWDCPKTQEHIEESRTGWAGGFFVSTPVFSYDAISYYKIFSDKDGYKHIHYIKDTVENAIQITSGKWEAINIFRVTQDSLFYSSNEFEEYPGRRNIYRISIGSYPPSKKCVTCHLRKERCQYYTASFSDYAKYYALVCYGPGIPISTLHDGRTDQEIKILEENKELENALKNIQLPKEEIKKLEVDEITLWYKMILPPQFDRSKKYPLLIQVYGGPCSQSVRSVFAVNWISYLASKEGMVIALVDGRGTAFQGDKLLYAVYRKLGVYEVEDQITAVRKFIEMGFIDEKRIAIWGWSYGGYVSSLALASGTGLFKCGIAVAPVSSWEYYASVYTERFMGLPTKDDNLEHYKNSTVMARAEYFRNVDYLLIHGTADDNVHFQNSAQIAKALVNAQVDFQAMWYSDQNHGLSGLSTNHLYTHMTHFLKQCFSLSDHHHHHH

B1: Trx-MC-FA-0114 (designed binder)
chain: GKCPYSNWTPGRGPACRRDSDCPGRCICRGNGYCG
modifications: disulfide 16-28, 22-34, 3-26; also: N-terminal Trx-His6-S-tag fusion carrier, not in chain
notes: the position follows from the order of the rows; also called alanine scan variant D15A of MC-FA-010, Trx fusion; not shown: Thioredoxin-A, His-tag (H6), S-tag and linker of the pET-32-LibEx fusion, N-terminal of the miniprotein
B2: AlexaFluor680-(MC-FA-012)3 (designed binder, not shown: small tags and cut ends)
chain 1: B1 chain with K2A, A15D
chain 2: B1 chain with K2A, A15D
chain 3: B1 chain with K2A, A15D
modifications: each of chains 1-3: N-terminal aminooxy group oxime-ligated to the anchor; three disulfides (cystine knot) per chain; anchor carries AlexaFluor680 at its N-terminal amine
notes: Purchased from Pepscan; also called AF680-(MC-FA-012)3
B3: ET-FA-012 (designed binder)
chain: GSGACPYSNWTPGRGPDCSQDSDCLAGCVCGPNGFCG
B4: MO-FA-012 (designed binder)
chain: GSGACPYSNWTPGRGPDCSSDSDCPGACICLENGFCG
B5: MC-FA-012 (designed binder)
chain: B1 chain with K2A, A15D
modifications: disulfide (positions not given here)
notes: it is derived from MC-FA-010 and K2A; also called MC-FA-012 (K2A); monomeric MC-FA-012 Microbody
B6: FA8-D03 (designed binder)
chain: GSGACPYTRWAVGRGPDCRRDSDCPGRCICRGNGYCG
B7: FA8-G12 (designed binder)
chain: B6 chain with R9N, A11H, V12P, D17A
B8: FA7-A05 (designed binder)
chain: B6 chain with T8S, A11M, V12P, D17S
B9: FA8-C09 (designed binder)
chain: B6 chain with R9N, A11R, V12P, D17A
B10: FA8-F04 (designed binder)
chain: B6 chain with T8S, R9N, D17S
B11: FA8-D05 (designed binder)
chain: B6 chain with A11Q, V12P, D17S
B12: FA8-D06 (designed binder)
chain: B6 chain with T8S
B13: Trx-MC-FA-011 (designed binder)
chain: B1 chain with G1A, A15D
modifications: disulfide 16-28, 22-34, 3-26; also: N-terminal Trx-His6-S-tag fusion carrier, letters not given here
notes: the position follows from the order of the rows; also called alanine scan variant G1A of MC-FA-010, Trx fusion; not shown: Thioredoxin-A, His-tag (H6), S-tag and linker of the pET-32-LibEx fusion, N-terminal of the miniprotein
B14: Trx-MC-FA-012 fusion protein (designed binder)
chain: B1 chain with K2A, A15D
modifications: disulfide 16-28, 22-34, 3-26; also: N-terminal Trx-His6-S-tag fusion carrier, not in chain
notes: also called MC-FA-012 (K2A) alanine scan variant; not shown: N-terminal carrier of the pET-32-LibEx fusion (thioredoxin-A, His tag, S-tag, thrombin site, vector linkers)
B15: Trx-MC-FA-013 (designed binder)
chain: B1 chain with P4A, A15D
modifications: disulfide 16-28, 22-34, 3-26; also: N-terminal Trx-His6-S-tag fusion carrier, not in chain
notes: the position follows from the order of the rows; also called alanine scan variant P4A of MC-FA-010, Trx fusion; not shown: Thioredoxin-A, His-tag (H6), S-tag and linker of the pET-32-LibEx fusion, N-terminal of the miniprotein
B16: Trx-MC-FA-015 (designed binder)
chain: B1 chain with S6A, A15D
modifications: disulfide 16-28, 22-34, 3-26; also: N-terminal Trx-His6-S-tag fusion carrier, not in chain
notes: the position follows from the order of the rows; also called alanine scan variant S6A of MC-FA-010, Trx fusion; not shown: thioredoxin-A, His6 tag, S-tag and linkers of the pET-32-LibEx fusion (N-terminal carrier)
B17: Trx-MC-FA-0115 (designed binder)
chain: B1 chain with A15D, R25A
modifications: disulfide 16-28, 22-34, 3-26; also: N-terminal Trx-His6-S-tag fusion carrier, not in chain
notes: also called alanine scan variant R25A of MC-FA-010, Trx fusion; not shown: Thioredoxin-A, His-tag (H6), S-tag and linker of the pET-32-LibEx fusion, N-terminal of the miniprotein

Residue numbers refer to the chain shown, from its start. Names may count otherwise. Positions of bridges follow the written chain, without caps; N, C: chain ends. No end group written: not given here.

In one assay the target is T1, recombinant soluble human Seprase …. The assay is described as follows: direct ELISA on coated rhuSeprase, Trx fusion detected with anti-S-tag-HRP; apparent KD from one site saturation fit; Error 1,76; R2 0,9973. As to the method: (§1) For protein based ELISA analysis 5 μg of the respective recombinant protein (rhuSeprase; streptavidin: Sigma; DPP-IV: R&D Systems, BSA: Eurobio) were immobilized per well of a MaxiSorp™ plate (Nunc) by overnight incubation in coating buffer at 4° C. After washing thrice with 300 μl PBS-T/well on a Hydrospeed plate washer (Tecan) the wells were blocked with 1×Casein solution (Sigma, diluted in PBS) for 2 h at RT. Subsequently, the wells were washed as indicated above. 100 μl of the respective Trx-miniprotein fusion diluted in PBS-T was then added and incubated for 1 h at 4° C. […] For competition ELISAs a fixed concentration of 3 nM Trx-miniprotein fusion was mixed with varying concentration (0.64-3167 nM) of solitary miniprotein before incubation. Binding of the Trx-fusion was detected after a PBS-T washing procedure using HRP coupled anti S-tag antibody as described above. Apparent Kd was calculated using Sigmaplot 10 and an one site saturation binding model for fitting of the data.
For orientation: ELISA stands for enzyme-linked immunosorbent assay.
For the molecule B1, the Kd worked out at 25.6 nM.

A further assay shares this target. The assay is described as follows: SPR (Biacore T-100), rhuSeprase immobilized on CM5, single cycle kinetics, 1:1 fit. As to the method: (§2) RhuSeprase (20 μg/ml in PBS, 5% mannitol, 5% trehalose) was immobilized on an amino reactive Series S Sensor Chip CM5 (GE Healthcare). For binding analysis of monomeric Microbodies rhuSeprase was loaded to a maximum of 7500 RU, for oligomeric Microbodies to a maximum of 700 RU. Monomeric Microbodies were measured using a multi cycle kinetic method in a concentration range of 3.125 to 1000 nM based on expected dissociation constant. Association step was measured over a time period of 60-90 seconds, dissociation over 420 seconds. Trimeric Mircobodies were measured using a single cycle kinetics method in a concentration range of 0.3125 to 5 nM (association for 90 seconds, dissociation 420 seconds). Binding kinetics and steady state analysis were calculated using a 1:1 binding model (Biacore T-100 Evaluation Software, GE Healthcare).
(§3) The binding kinetics of monomeric and trimeric Seprase-binding Microbodies was determined using surface plasmon resonance spectroscopy on a Biacore T-100 system.
Turning to B2, the Kd worked out at 0.0615 nM and the on-rate (kon) is 1.68e+07 M⁻¹ s⁻¹.

The target is the same in the next assay. Briefly: SPR (Biacore T-100). As for the experimental part:
as §2, §3
For orientation: In SPR one partner is held on a chip, and binding of the other changes the refractive index at the surface.
On to B2, for which the “times slower offrate compared to MC-FA-012” value was about 134 fold.

A further assay has the same target. Briefly: SPR (Biacore T-100), rhuSeprase immobilized on CM5, multi cycle kinetics, 1:1 fit. As for the experimental part: as §2, §3
As for B3, the Kd amounted to 1400 nM, the off-rate constant (koff) stood at 0.853 s⁻¹ and the kon amounted to 608000 M⁻¹ s⁻¹.
For the molecule B4, the Kd worked out at 1340 nM, the koff is 0.513 s⁻¹ and the kon was determined as 382000 M⁻¹ s⁻¹.
On to B5, for which the Kd came to 340 nM, the koff was 0.139 s⁻¹ and the kon turned out to be 408000 M⁻¹ s⁻¹.
As to B6, the Kd was 147 nM, the koff was found to be 0.138 s⁻¹ and the on-rate (kon) worked out at 939000 M⁻¹ s⁻¹.
As for B7, the Kd is 487 nM, the koff came to 0.317 s⁻¹ and the kon was 651000 M⁻¹ s⁻¹.
For B8, the Kd was 205 nM, the koff amounted to 0.0503 s⁻¹ and the kon was found to be 246000 M⁻¹ s⁻¹.
For B9, in that order: 296 nM, 2.94 s⁻¹ and 9.92e+06 M⁻¹ s⁻¹.
For B10, in that order: 321 nM, 0.2 s⁻¹ and 624000 M⁻¹ s⁻¹.
In the case of B11, the Kd is 193 nM, the koff worked out at 0.812 s⁻¹ and the on-rate constant (kon) is 4.21e+06 M⁻¹ s⁻¹.
As for B12, the Kd came out at 153 nM, the koff is 0.053 s⁻¹ and the kon turned out to be 346000 M⁻¹ s⁻¹.

Another assay has the same target. The assay is described as follows: direct ELISA on coated rhuSeprase, Trx fusion detected with anti-S-tag-HRP; apparent KD from one site saturation fit; Error 1,17; R2 0,9981. As to the method:
as §1
Consider B13, for which the Kd stood at 20.3 nM.

The next assay shares this target. The assay is described as follows: direct ELISA on coated rhuSeprase; binding relative to the parental Trx-MC-FA-010. As to the method: as §1
For B1, the “Relative Bindung im Vergleich zu Trx-MC-FA-010 [%]” value was 59.2%.
B14: the “Relative Bindung im Vergleich zu Trx-MC-FA-010 [%]” value came to 160%.
On to B15, for which the “Relative Bindung im Vergleich zu Trx-MC-FA-010 [%]” value stood at 33.7%.
For the molecule B16, the “Relative Bindung im Vergleich zu Trx-MC-FA-010 [%]” value was determined as 93.6%.
On the same count and under the same terms, the value for B13 was 74.5%; that for B17 was 80.7%.

The target is the same in a further assay. The assay is described as follows: direct ELISA on coated rhuSeprase, Trx fusion detected with anti-S-tag-HRP; apparent KD from one site saturation fit; Error 1,02; R2 0,9976. As to the method:
as §1
Turning to B16, the Kd was 16.2 nM.

The next assay has the same target. Briefly: SPR (Biacore T-100), rhuSeprase immobilized on CM5, steady state analysis, 1:1 fit. As for the experimental part:
as §2, §3
B3: the Kd was found to be 4540 nM.
Take B4: the Kd turned out to be 1160 nM.
On to B5, for which the Kd came out at 246 nM.
Regarding B2, the Kd came to 0.669 nM.
With B6, the Kd came to 151 nM.
As to B7, the Kd came to 470 nM.
With B8, the Kd stood at 102 nM.
On to B9, for which the Kd worked out at 243 nM.
In the case of B10, the Kd amounted to 332 nM.
In the case of B11, the Kd amounted to 177 nM.
On the same count and under the same terms, the value for B12 was 113 nM.

The next assay has the same target. Briefly: direct ELISA on coated rhuSeprase, Trx fusion detected with anti-S-tag-HRP; apparent KD from one site saturation fit; Error 1,17; R2 0,9977. As to the method:
as §1
On to B17, for which the Kd was 18.8 nM.

For another assay the target is unchanged. Briefly: direct ELISA on coated rhuSeprase, Trx fusion detected with anti-S-tag-HRP; apparent KD from one site saturation fit; Error 3,04; R2 0,9976. As to the method:
as §1
B15: the Kd stood at 44.9 nM.

The next assay shares this target. The assay is described as follows: direct ELISA on coated rhuSeprase, Trx fusion detected with anti-S-tag-HRP; apparent KD from one site saturation fit; Error 0,54; R2 0,9981. As to the method:
as §1
Consider B14, for which the Kd came out at 9.49 nM.
